Measurements from patent publication US7223734B2, “Plasma protein-binding ligands” (The American National Red Cross, priority 2002, dated 2007).
Non-standard residues stand in square brackets, D forms with d. No end group written: not given here.

Legend:
Assay type in all cases: binding
Apo-A1 lipoprotein = molecular target: T1, Apo-A1 lipoprotein (Homo sapiens, UniProt P02647); test: Apo-A1 lipoprotein purification from fibrinogen-depleted plasma on peptide resin column (Example 4); conditions: for removal / depletion of Apo-A1 lipoprotein in flow-through: fibrinogen-depleted plasma, 14 ml on 2.3 ml resin, SDS-PAGE
T1 construct: from tissue; host or cells: human plasma (whole or fibrinogen-depleted)
T1 sequence (P02647 25-267 limits assumed): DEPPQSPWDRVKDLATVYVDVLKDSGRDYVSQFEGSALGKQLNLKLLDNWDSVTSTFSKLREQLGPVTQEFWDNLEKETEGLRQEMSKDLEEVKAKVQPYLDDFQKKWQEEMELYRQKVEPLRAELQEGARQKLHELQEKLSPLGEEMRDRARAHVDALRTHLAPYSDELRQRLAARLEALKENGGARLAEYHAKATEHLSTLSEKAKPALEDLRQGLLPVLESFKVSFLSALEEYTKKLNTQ
Procedure: (§1) Apo-A1 lipoprotein purification was accomplished with D-WWLHIN (SEQ ID NO: 33) peptides and several analogs. Indeed, about 100% Apo-A1 lipoprotein depletion from plasma was repeatedly obtained with D-WWLHAN (SEQ ID NO: 56) and D-WWLHIN (SEQ ID NO: […]). Fourteen milliliters of fibrinogen-depleted plasma was loaded onto a 2.3 ml column (CF=0.785 cm^2) at 0.4 ml/min. (LV=30 cm/H; RT=5.8) that had been equilibrated with 0.14 M NaCl, 0.020 M sodium citrate, pH 7.0 (EQ buffer). After the column was washed with EQ buffer to baseline, Apo-A1 lipoprotein was eluted with 2.0 M NaCl, 1% Tween-20, 0.020M sodium citrate, pH 7.0. The column was regenerated with 2.0 M guanidine-HCl, 2% Sarkosyl, and 2% acetic acid and stored in 20% methanol.

API = molecular target: T2, API (Homo sapiens, UniProt P01009); test: API recovery in Apo-A1 purification run (Example 4); conditions: load 10.6 mg
T2 construct: from tissue; host or cells: human plasma (whole, fibrinogen-depleted or F1-Apo-depleted)
T2 sequence (P01009 25-418): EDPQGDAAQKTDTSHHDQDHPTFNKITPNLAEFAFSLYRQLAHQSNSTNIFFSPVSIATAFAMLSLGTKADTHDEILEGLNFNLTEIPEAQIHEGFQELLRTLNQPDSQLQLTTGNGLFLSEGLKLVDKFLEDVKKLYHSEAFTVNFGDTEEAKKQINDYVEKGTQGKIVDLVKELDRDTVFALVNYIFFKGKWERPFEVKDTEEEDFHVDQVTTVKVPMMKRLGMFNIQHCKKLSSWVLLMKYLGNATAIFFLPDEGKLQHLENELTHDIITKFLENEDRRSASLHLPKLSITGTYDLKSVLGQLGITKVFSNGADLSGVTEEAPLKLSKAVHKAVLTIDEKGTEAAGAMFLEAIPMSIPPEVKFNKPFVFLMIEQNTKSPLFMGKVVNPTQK
Procedure: as §1

albumin = molecular target: T3, albumin (Homo sapiens, UniProt P02768); test: Albumin recovery in Apo-A1 purification run (Example 4); conditions: load 372 mg
T3 construct: from tissue; host or cells: human plasma (fibrinogen-depleted or F1-Apo-depleted)
Procedure: as §1

Which “Apo-A1 Elution” value (Apo-A1 lipoprotein; 2.0 M NaCl, 1% Tween-20 eluate, load 12.9 mg) does the source give for “WFLHIN ([dW]FLHIN; not fully specified (residues 2, 3, 4, 5, 6)) [D-WFLHIN]” here?
The value was 9.1 mg.

And the “removal / depletion of Apo-A1 lipoprotein in flow-through” value (Apo-A1 lipoprotein)?
Its value is “Complete Apo-A1 lipoprotein depletion”.

What about the “removal / depletion of Apo-A1 lipoprotein in flow-through” value (Apo-A1 lipoprotein; listed as WFLHIN) of the same substance?
The value was “complete removal”.

And the “API Flow Through” value (API)?
The value was 12.5 mg.

And the “Albumin Flow Through” value (albumin)?
The value was 386 mg.
